From patent publication US20110263454A1, “Methods of Identifying Functional Characteristics of Promoters, Transcription Modifying Proteins and Transcription Modulating Agents” (Salk Institute for Biological Studies, priority 2008, published 2011)

Key:
mGhrelin promoter = experiment: NHR-promoter luciferase screen, mGhrelin promoter; type: cell-based, mouse; details: for Luc. act., normalized to lacZ / Normalized Luc. act., normalized to control: Table 8, mGhrelin; for Results of assays of transcription factor (+/- ligand) with mGhrelin: Table 6d, luciferase activity relative to control (control = 1.00)
Outline: (§1)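 CV-1 cells were co-transfected with 50 ng NHR (homodimer or NHR/RXR heterodimer), 100 ng promoter-luciferase construct and 50 ng LacZ. Luciferase was normalized to LacZ and to a no-NHR/no-ligand control.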

mAgrp promoter = experiment: NHR-promoter luciferase screen, mAgrp promoter; type: cell-based, mouse; details: for Results of assays of transcription factor (+/- ligand) with mAgrp: Table 6d, luciferase activity relative to control (control = 1.00); for Luc. act., normalized to lacZ / Normalized Luc. act., normalized to control: mAgrp promoter, HR component with or without ligand; for Normalized Luc. act., normalized to control: relative to control
Outline: as §1

mUCP1 promoter = experiment: NHR-promoter luciferase screen, mUCP1 promoter; type: cell-based, mouse; details: for Luc. act., normalized to lacZ / Normalized Luc. act., normalized to control: mUCP1 promoter reporter, co-transfected HR, with or without its ligand; for Normalized Luc. act., normalized to control: relative to control; for luciferase activity normalized to lacZ activity and to a control, mUCP!: mUCP! promoter-luciferase, CV-1 cells, NHR +/- ligand, control = 1.00
Outline: as §1

Bmal1 promoter = experiment: NHR-promoter luciferase screen, Bmal1 promoter; type: cell-based, mouse; details: for Luc. act., normalized to lacZ / Normalized Luc. act., normalized to control: Bmal1 promoter, HR component without or with ligand; for mBmal1 promoter reporter activity: transcription factor +/- ligand, control = 1.00
Outline: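 Luciferase activity was measured 48 h after transfection, normalized to LacZ and then to a control lacking NHR or ligand. CV-1 cells carried 100 ng Bmal1 reporter, 50 ng NHR construct and 50 ng LacZ.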

hIRF7 promoter = experiment: NHR-promoter luciferase screen, hIRF7 promoter; type: cell-based, human; details: for Normalized Luc. act., normalized to control / Luc. act., normalized to lacZ: IRF7 promoter reporter; for Normalized Luc. act., normalized to control: HR without or with its ligand, relative to control; for Luc. act., normalized to lacZ: hormone receptor (HR) without or with its ligand; for hIRF7 promoter reporter activity: transcription factor +/- ligand, control = 1.00
Outline: as §1

Molecule	Luc. act., normalized to lacZ (mGhrelin promoter)	Normalized Luc. act., normalized to control (mGhrelin promoter)	Results of assays of transcription factor (+/- ligand) with mGhrelin (mGhrelin promoter)	Results of assays of transcription factor (+/- ligand) with mAgrp (mAgrp promoter)	Luc. act., normalized to lacZ (mAgrp promoter)	Normalized Luc. act., normalized to control (mAgrp promoter)	Luc. act., normalized to lacZ (mUCP1 promoter)	Normalized Luc. act., normalized to control (mUCP1 promoter)	luciferase activity normalized to lacZ activity and to a control, mUCP! (mUCP1 promoter)	Luc. act., normalized to lacZ (Bmal1 promoter)	Normalized Luc. act., normalized to control (Bmal1 promoter)	mBmal1 promoter reporter activity (Bmal1 promoter)	Normalized Luc. act., normalized to control (hIRF7 promoter)	Luc. act., normalized to lacZ (hIRF7 promoter)	hIRF7 promoter reporter activity (hIRF7 promoter)
PR: Progesterone Receptor (NR3C3), cDNA driver (protein, UniProt P06401 1-933, looked up) Progesterone receptor: MTELKAKGPRAPHVAGGPPSPEVGSPLLCRPAAGPFPGSQTSDTLPEVSAIPISLDGLLFPRPCQGQDPSDEKTQDQQSLSDVEGAYSRAEATRGAGGSSSSPPEKDSGLLDSVLDTLLAPSGPGQSQPSPPACEVTSSWCLFGPELPEDPPAAPATQRVLSPLMSRSGCKVGDSSGTAAAHKVLPRGLSPARQLLLPASESPHWSGAPVKPSPQAAAVEVEEEDGSESEESAGPLLKGKPRALGGAAAGGGAAAVPPGAAAGGVALVPKEDSRFSAPRVALVEQDAPMAPGRSPLATTVMDFIHVPILPLNHALLAARTRQLLEDESYDGGAGAASAFAPPRSSPCASSTPVAVGDFPDCAYPPDAEPKDDAYPLYSDFQPPALKIKEEEEGAEASARSPRSYLVAGANPAAFPDFPLGPPPPLPPRATPSRPGEAAVTAAPASASVSSASSSGSTLECILYKAEGAPPQQGPFAPPPCKAPGASGCLLPRDGLPSTSASAAAAGAAPALYPALGLNGLPQLGYQAAVLKEGLPQVYPPYLNYLRPDSEASQSPQYSFESLPQKICLICGDEASGCHYGVLTCGSCKVFFKRAMEGQHNYLCAGRNDCIVDKIRRKNCPACRLRKCCQAGMVLGGRKFKKFNKVRVVRALDAVALPQPVGVPNESQALSQRFTFSPGQDIQLIPPLINLLMSIEPDVIYAGHDNTKPDTSSSLLTSLNQLGERQLLSVVKWSKSLPGFRNLHIDDQITLIQYSWMSLMVFGLGWRSYKHVSGQMLYFAPDLILNEQRMKESSFYSLCLTMWQIPQEFVKLQVSQEEFLCMKVLLLLNTIPLEGLRSQTQFEEMRSSYIRELIKAIGLRQKGVVSSSQRFYQLTKLLDNLHDLVKQLHLYCLNTFIQSRALSVEFPEMMSEVIAAQLPKILAGMVKPLLFHKK	53.6	1.0	1.03	1.13	44.7	1.1	5.4	1.2	1.21	17.9	1.1	1.14	1.3	33.0	1.25
NR4a2: NR4a2 (NR4A2; NURR1), nuclear hormone receptor cDNA driver (protein, UniProt P43354 1-598, looked up) Nuclear receptor subfamily 4 …: MPCVQAQYGSSPQGASPASQSYSYHSSGEYSSDFLTPEFVKFSMDLTNTEITATTSLPSFSTFMDNYSTGYDVKPPCLYQMPLSGQQSSIKVEDIQMHNYQQHSHLPPQSEEMMPHSGSVYYKPSSPPTPTTPGFQVQHSPMWDDPGSLHNFHQNYVATTHMIEQRKTPVSRLSLFSFKQSPPGTPVSSCQMRFDGPLHVPMNPEPAGSHHVVDGQTFAVPNPIRKPASMGFPGLQIGHASQLLDTQVPSPPSRGSPSNEGLCAVCGDNAACQHYGVRTCEGCKGFFKRTVQKNAKYVCLANKNCPVDKRRRNRCQYCRFQKCLAVGMVKEVVRTDSLKGRRGRLPSKPKSPQEPSPPSPPVSLISALVRAHVDSNPAMTSLDYSRFQANPDYQMSGDDTQHIQQFYDLLTGSMEIIRGWAEKIPGFADLPKADQDLLFESAFLELFVLRLAYRSNPVEGKLIFCNGVVLHRLQCVRGFGEWIDSIVEFSSNLQNMNIDISAFSCIAALAMVTERHGLKEPKRVEELQNKIVNCLKDHVTFNNGGLNRPNYLSKLLGKLPELRTLCTQGLQRIFYLKLEDLVPPPAIIDKLFLDTLPF	31.5	0.6	0.60	0.88	35.1	0.9	4.4	1.0	0.99	8.1	0.5	0.52	0.9	23.2	0.88
NR4a3: NR4a3 (NR4A3; NOR1), nuclear hormone receptor cDNA driver (protein, UniProt Q92570 1-626, looked up) Nuclear receptor subfamily 4 …: MPCVQAQYSPSPPGSSYAAQTYSSEYTTEIMNPDYTKLTMDLGSTEITATATTSLPSISTFVEGYSSNYELKPSCVYQMQRPLIKVEEGRAPSYHHHHHHHHHHHHHHQQQHQQPSIPPASSPEDEVLPSTSMYFKQSPPSTPTTPAFPPQAGALWDEALPSAPGCIAPGPLLDPPMKAVPTVAGARFPLFHFKPSPPHPPAPSPAGGHHLGYDPTAAAALSLPLGAAAAAGSQAAALESHPYGLPLAKRAAPLAFPPLGLTPSPTASSLLGESPSLPSPPSRSSSSGEGTCAVCGDNAACQHYGVRTCEGCKGFFKRTVQKNAKYVCLANKNCPVDKRRRNRCQYCRFQKCLSVGMVKEVVRTDSLKGRRGRLPSKPKSPLQQEPSQPSPPSPPICMMNALVRALTDSTPRDLDYSRYCPTDQAAAGTDAEHVQQFYNLLTASIDVSRSWAEKIPGFTDLPKEDQTLLIESAFLELFVLRLSIRSNTAEDKFVFCNGLVLHRLQCLRGFGEWLDSIKDFSLNLQSLNLDIQALACLSALSMITERHGLKEPKRVEELCNKITSSLKDHQSKGQALEPTESKVLGALVELRKICTLGLQRIFYLKLEDLVSPPSIIDKLFLDTLPF	29.4	0.6	0.56	0.88	34.7	0.9	3.8	0.9	0.86	7.5	0.5	0.48	0.9	24.9	0.95
